Measurements taken from paper PMC10397247.
Each block holds one binder with its values, some of them ahead of it.

Tests used:
Experiment in all cases: two-hybrid library CCNG1;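 note: natural log of median RNA to DNA barcode read ratio; higher means stronger binding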
P8SH = molecular target: T1, P8SH
T1 chain: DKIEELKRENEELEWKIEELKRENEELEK

P7SH = molecular target: T2, P7SH
T2 chain: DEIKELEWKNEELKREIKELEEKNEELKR

4H3364-bA = molecular target: T3, 4H3364-bA
T3 chain: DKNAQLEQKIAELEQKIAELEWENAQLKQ

4H2585-bA = molecular target: T4, 4H2585-bA
T4 chain: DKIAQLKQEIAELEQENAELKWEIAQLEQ

4H454-bA = molecular target: T5, 4H454-bA
T5 chain: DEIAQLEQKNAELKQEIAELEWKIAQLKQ

4H932-bA = molecular target: T6, 4H932-bA
T6 chain: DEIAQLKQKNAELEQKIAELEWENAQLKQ

4H2859-bA = molecular target: T7, 4H2859-bA
T7 chain: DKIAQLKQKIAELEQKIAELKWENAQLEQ

4H349-bA = molecular target: T8, 4H349-bA
T8 chain: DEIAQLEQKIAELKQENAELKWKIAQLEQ

4H2760-bA = molecular target: T9, 4H2760-bA
T9 chain: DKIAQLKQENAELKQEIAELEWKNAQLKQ

4H3041-bA = molecular target: T10, 4H3041-bA
T10 chain: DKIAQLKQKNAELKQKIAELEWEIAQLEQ

4H730-bA = molecular target: T11, 4H730-bA
T11 chain: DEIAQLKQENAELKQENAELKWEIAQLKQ

4H796-bA = molecular target: T12, 4H796-bA
T12 chain: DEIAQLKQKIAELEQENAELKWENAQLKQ

4H3297-bA = molecular target: T13, 4H3297-bA
T13 chain: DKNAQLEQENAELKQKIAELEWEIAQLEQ

4H2931-bA = molecular target: T14, 4H2931-bA
T14 chain: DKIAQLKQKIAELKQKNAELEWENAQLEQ

4H2444-bA = molecular target: T15, 4H2444-bA
T15 chain: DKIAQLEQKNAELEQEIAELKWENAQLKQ

4H2518-bA = molecular target: T16, 4H2518-bA
T16 chain: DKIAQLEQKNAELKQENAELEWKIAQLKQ

4H3381-bA = molecular target: T17, 4H3381-bA
T17 chain: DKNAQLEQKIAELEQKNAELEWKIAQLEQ

4H331-bA = molecular target: T18, 4H331-bA
T18 chain: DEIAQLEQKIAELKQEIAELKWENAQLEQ

4H949-bA = molecular target: T19, 4H949-bA
T19 chain: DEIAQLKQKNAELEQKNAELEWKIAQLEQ

4H575-bH = molecular target: T20, 4H575-bH
T20 chain: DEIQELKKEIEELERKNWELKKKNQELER

4H264-bA = molecular target: T21, 4H264-bA
T21 chain: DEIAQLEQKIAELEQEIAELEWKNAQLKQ

4H235-bA = molecular target: T22, 4H235-bA
T22 chain: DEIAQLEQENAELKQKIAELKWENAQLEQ

4H56-bA = molecular target: T23, 4H56-bA
T23 chain: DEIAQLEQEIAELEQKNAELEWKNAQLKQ

4H470-bN = molecular target: T24, 4H470-bN
T24 chain: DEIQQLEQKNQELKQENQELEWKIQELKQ

4H3907-bN = molecular target: T25, 4H3907-bN
T25 chain: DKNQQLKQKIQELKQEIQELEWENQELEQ

4H344-bN = molecular target: T26, 4H344-bN
T26 chain: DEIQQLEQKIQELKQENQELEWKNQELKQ

4H363-bN = molecular target: T27, 4H363-bN
T27 chain: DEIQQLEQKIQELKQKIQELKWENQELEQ

4H3961-bN = molecular target: T28, 4H3961-bN
T28 chain: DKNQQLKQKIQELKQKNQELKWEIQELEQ

4H4038-bN = molecular target: T29, 4H4038-bN
T29 chain: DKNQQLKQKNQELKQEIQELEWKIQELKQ

4H3601-bN = molecular target: T30, 4H3601-bN
T30 chain: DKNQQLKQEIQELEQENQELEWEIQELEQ

- interaction score (P8SH): 2.08
- interaction score (P7SH): -0.227
Binder: DEIKELEWKNEELKREIKELEEKNEELKR [P7SH]

- interaction score (4H3364-bA): -0.845
- interaction score (4H2585-bA): -0.367
- interaction score (4H454-bA): 0.0882
- interaction score (4H932-bA): -0.974
- interaction score (4H2859-bA): -0.319
- interaction score (4H349-bA): -0.682
- interaction score (4H2760-bA): 1.96
- interaction score (4H3041-bA): 0.563
- interaction score (4H730-bA): -0.952
- interaction score (4H796-bA): -0.862
- interaction score (4H3297-bA): -0.354
- interaction score (4H2931-bA): -0.643
- interaction score (4H2444-bA): -0.488
- interaction score (4H2518-bA): -0.69
- interaction score (4H3381-bA): -0.985
- interaction score (4H331-bA): -2
- interaction score (4H949-bA): -0.885
- interaction score (4H575-bH): -3.02
- interaction score (4H264-bA): -0.636
- interaction score (4H235-bA): 0.082
- interaction score (4H56-bA): -1.05
Binder: DEIAQLEQENAELKQKIAELKWENAQLEQ [4H235-bA]

- interaction score (4H470-bN): 0.132
- interaction score (4H3907-bN): -2.07
- interaction score (4H344-bN): 0.297
- interaction score (4H363-bN): -2.06
- interaction score (4H3961-bN): 0.044
Binder: DEIQQLEQKIQELKQENQELEWKNQELKQ [4H344-bN]

- interaction score (4H4038-bN): -1.28
- interaction score (4H3907-bN): -1.37
- interaction score (4H3601-bN): -1.57
Binder: DKNQQLKQEIQELEQENQELEWEIQELEQ [4H3601-bN]
